Test results published in patent publication US20150203577A1 (Chugai, published 2015).
Substitutions are numbered along the chain they refer to.

T1: mouse FcγRII (mouse, UniProt P08101 30-210)
T1 construct: Extracellular domain with C-terminal His tag; also called mFcγRII; mFcgRII
T1 sequence: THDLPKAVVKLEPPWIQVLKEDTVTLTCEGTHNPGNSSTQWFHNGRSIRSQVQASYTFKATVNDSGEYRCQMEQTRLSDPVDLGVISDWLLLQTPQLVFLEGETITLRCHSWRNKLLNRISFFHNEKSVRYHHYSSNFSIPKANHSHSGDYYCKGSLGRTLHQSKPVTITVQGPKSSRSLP

T2: mouse FcγRIII (mouse, UniProt P08508 31-215)
T2 construct: Extracellular domain with C-terminal His tag; also called mFcγRIII; mFcgRIII
T2 chain: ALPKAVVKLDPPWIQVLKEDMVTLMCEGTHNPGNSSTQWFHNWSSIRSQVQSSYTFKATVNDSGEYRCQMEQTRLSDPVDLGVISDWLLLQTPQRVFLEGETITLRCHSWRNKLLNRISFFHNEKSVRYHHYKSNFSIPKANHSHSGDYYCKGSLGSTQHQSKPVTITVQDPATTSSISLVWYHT

B1: MB772 (antibody, mouse IgG1, kappa)
heavy: QVQLQESGPGLVKPSETLSLTCAVSGHSISHDHAWSWVRQPPGEGLEWIGFISYSGITNYNPSLQGRVTISRDNSKNTLYLQMNSLRAEDTAVYYCARSLARTTAMDYWGEGTLVTVSSAKTTPPSVYPLAPGSAAQTNSMVTLGCLVKGYFPEPVTVTWNSGSLSSGVHTFPAVLQSDLYTLSSSVTVPSSTWPSETVTCNVAHPASSTKVDKKIVPRDCGCKPCICEPNEVELVFIFPPKPKDVLTITLTPKVTCVVVDISKDDPEVQFSWFVDDVEVHTAQTQPREEQFNSTFRSVSELPIMHQDWLNGKEFKCRVNSAAFPAPINKTISKTKGRPKAPQVYTIPPPKEQMAKDKVSLTCMITDFFPEDITVEWQWNGQPAENYKNTQPIMDTDGSYFVYSKLNVQKSNWEAGNTFTCSVLHEGLHNHHTEKSLSHSPGK
light: not shown
notes: CH name; VH H237 + CH, L chain MRAL-k0; copies: 2 + 2
B2: MB780 (antibody, mouse IgG1, kappa)
heavy: B1 heavy with A323G, N329E
light: not shown
notes: as for B1
B3: MB776 (antibody, mouse IgG1, kappa)
heavy: B1 heavy with N329E, T331Y
light: not shown
notes: as for B1
B4: MB790 (antibody, mouse IgG1, kappa)
heavy: B1 heavy with N320D, A322D, N329E, K330R
light: not shown
notes: as for B1
B5: MB779 (antibody, mouse IgG1, kappa)
heavy: B1 heavy with N329E, S333W
light: not shown
notes: as for B1
B6: MB787 (antibody, mouse IgG1, kappa)
heavy: B1 heavy with Q291L, N320D, A322D, N329E
light: not shown
notes: as for B1
B7: MB785 (antibody, mouse IgG1, kappa)
heavy: B1 heavy with N320D, A322D, N329E
light: not shown
notes: as for B1
B8: MB783 (antibody, mouse IgG1, kappa)
heavy: B1 heavy with Q291L, A322D, N329E
light: not shown
notes: as for B1
B9: MB775 (antibody, mouse IgG1, kappa)
heavy: B1 heavy with N329E, T331N
light: not shown
notes: as for B1
B10: MB782 (antibody, mouse IgG1, kappa)
heavy: B1 heavy with Q291L, N320D, N329E
light: not shown
notes: as for B1
B11: MB784 (antibody, mouse IgG1, kappa)
heavy: B1 heavy with Q291L, N329E, K330R
light: not shown
notes: as for B1
B12: MB788 (antibody, mouse IgG1, kappa)
heavy: B1 heavy with Q291L, N320D, N329E, K330R
light: not shown
notes: as for B1
B13: MB781 (antibody, mouse IgG1, kappa)
heavy: B1 heavy with A326K, N329E
light: not shown
notes: as for B1
B14: MB791 (antibody, mouse IgG1, kappa)
heavy: B1 heavy with Q291L, N320D, A322D, N329E, K330R
light: not shown
notes: as for B1
B15: MB773 (antibody, mouse IgG1, kappa)
heavy: B1 heavy with N329Y
light: not shown
notes: as for B1
B16: MB778 (antibody, mouse IgG1, kappa)
heavy: B1 heavy with N329E, S333K
light: not shown
notes: as for B1
B17: MB808 (antibody, mouse IgG1, kappa)
heavy: B1 heavy with Q291L, A323G, N329E
light: not shown
notes: as for B1
B18: MB774 (antibody, mouse IgG1, kappa)
heavy: B1 heavy with N329V
light: not shown
notes: as for B1
B19: MB789 (antibody, mouse IgG1, kappa)
heavy: B1 heavy with Q291L, A322D, N329E, K330R
light: not shown
notes: as for B1
B20: MB777 (antibody, mouse IgG1, kappa)
heavy: B1 heavy with N329E, S333I
light: not shown
notes: as for B1
B21: MB807 (antibody, mouse IgG1, kappa)
heavy: B1 heavy with Q291L, N320M, N329E
light: not shown
notes: as for B1
B22: MB786 (antibody, mouse IgG1, kappa)
heavy: B1 heavy with A322D, N329E, K330R
light: not shown
notes: as for B1

Target: T1, mouse FcγRII
Experiment: SPR (Biacore T200); KD of H237-MB630/MRAL-k0 / KD of variant
Description: (§1) The antibody H chain variable region used was the variable region H237 (SEQ ID NO: 1) of the H chain VH3-IgG1 of the anti-IL-6 receptor antibody Fv4-IgG1 described in WO2009/125825. The antibody L chain commonly used was the L chain MRAL-k0 (SEQ ID NO: 2) of the anti-IL-6 receptor antibody tocilizumab. […] These variants were expressed and purified by the method of Reference Example 1 and evaluated for their binding to mFcγRII and mFcγRIII by the method of Reference Example 2 using Biacore T200.
(§2) Each altered antibody was analyzed for its interaction with each Fcγ receptor prepared above using Biacore T100 (GE Healthcare Japan Corp.), Biacore T200 (GE Healthcare Japan Corp.), Biacore A100, or Biacore 4000. The running buffer used was HBS-EP+ (GE Healthcare Japan Corp.). The assay temperature was set to 25° C. The sensor chips used were chips prepared by immobilizing Protein L (ACTIGEN or BioVision) onto Series S Sensor Chip CM5 (GE Healthcare Japan Corp.) or Series S Sensor Chip CM4 (GE Healthcare Japan Corp.) by the amine coupling method.
(§3) In order to calculate the KD value of each altered antibody for FcγR, kinetic analysis was conducted according to the following method: first, the antibody of interest was captured onto any of these chips and allowed to interact with mFcγR diluted with a running buffer. For the obtained sensorgram, the assay results were globally fit into the 1:1 Langmuir binding model using Biacore Evaluation Software to calculate an association rate constant ka (L/mol/s) and a dissociation rate constant kd (1/s). From these values, the dissociation constant KD (mol/L) was calculated.

| Relative mFcγRII-binding activity (MB630 = 1) [fold] | Binder |
| --- | --- |
| 0.32 | B1 |
| 1.86 | B2 |
| 1.04 | B3 |
| 3.08 | B4 |
| 0.92 | B5 |
| 3.55 | B6 |
| 2.29 | B7 |
| 2.82 | B8 |
| 0.84 | B9 |
| 1.96 | B10 |
| 1.36 | B11 |
| 2.06 | B12 |
| 0.48 | B13 |
| 3.7 | B14 |
| 1.17 | B15 |
| 0.57 | B16 |
| 2.22 | B17 |
| 0.87 | B18 |
| 2.84 | B19 |
| 0.74 | B20 |
| 1.67 | B21 |
| 2.5 | B22 |

Target: T2, mouse FcγRIII
Experiment: as above
Description: as §1, §2, §3

| Relative mFcγRIII-binding activity (MB630 = 1) [fold] | Binder |
| --- | --- |
| 0.42 | B1 |
| 2.29 | B2 |
| 1.15 | B3 |
| 4.09 | B4 |
| 1.02 | B5 |
| 5.57 | B6 |
| 2.85 | B7 |
| 4.34 | B8 |
| 1.02 | B9 |
| 2.89 | B10 |
| 2.24 | B11 |
| 3.46 | B12 |
| 0.77 | B13 |
| 6.43 | B14 |
| 1.25 | B15 |
| 0.65 | B16 |
| 3.4 | B17 |
| 1.05 | B18 |
| 4.79 | B19 |
| 0.72 | B20 |
| 2.11 | B21 |
| 3.33 | B22 |

Target: T1, mouse FcγRII
Experiment: SPR (Biacore T200); KD of H237-mIgG1/MRAL-k0 / KD of variant
Description: as §1, §2

| relative mFcγRII-binding activity (mIgG1 = 1) [fold] | Binder |
| --- | --- |
| 3.5 | B1 |
| 20.2 | B2 |
| 11.3 | B3 |
| 33.5 | B4 |
| 10 | B5 |
| 38.5 | B6 |
| 24.9 | B7 |
| 30.6 | B8 |
| 9.1 | B9 |
| 21.3 | B10 |
| 14.7 | B11 |
| 22.4 | B12 |
| 5.2 | B13 |
| 40.1 | B14 |
| 12.7 | B15 |
| 6.1 | B16 |
| 29.2 | B17 |
| 9.4 | B18 |
| 30.9 | B19 |
| 9.7 | B20 |
| 21.9 | B21 |
| 27.2 | B22 |

Target: T2, mouse FcγRIII
Experiment: as above
Description: as §1, §2

| relative mFcγRIII-binding activity (mIgG1 = 1) [fold] | Binder |
| --- | --- |
| 0.07 | B1 |
| 0.39 | B2 |
| 0.2 | B3 |
| 0.7 | B4 |
| 0.18 | B5 |
| 0.96 | B6 |
| 0.49 | B7 |
| 0.75 | B8 |
| 0.18 | B9 |
| 0.5 | B10 |
| 0.38 | B11 |
| 0.59 | B12 |
| 0.13 | B13 |
| 1.1 | B14 |
| 0.22 | B15 |
| 0.11 | B16 |
| 0.78 | B17 |
| 0.18 | B18 |
| 0.82 | B19 |
| 0.17 | B20 |
| 0.49 | B21 |
| 0.57 | B22 |
